From patent publication US20210115144A1 (Dana-Farber, published 2021)

T1: human HHLA2 expressed on transfected cells (300.19 mouse pre-B cells; CHO cells) (human, UniProt Q9UM44 23-414)
T1 construct: also called B7-H7; B7H7
T1 sequence: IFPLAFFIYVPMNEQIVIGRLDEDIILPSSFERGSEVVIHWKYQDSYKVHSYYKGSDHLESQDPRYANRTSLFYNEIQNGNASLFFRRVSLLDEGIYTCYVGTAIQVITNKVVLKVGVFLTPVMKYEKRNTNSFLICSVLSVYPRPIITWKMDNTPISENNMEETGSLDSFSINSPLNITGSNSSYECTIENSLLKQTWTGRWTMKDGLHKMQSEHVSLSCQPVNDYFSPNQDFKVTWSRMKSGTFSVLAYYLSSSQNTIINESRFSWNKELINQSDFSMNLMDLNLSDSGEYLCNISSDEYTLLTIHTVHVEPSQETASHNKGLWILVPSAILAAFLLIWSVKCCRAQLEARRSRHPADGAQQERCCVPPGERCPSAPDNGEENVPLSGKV

B1: human TMIGD2 expressed on transfected cells (293T, 300.19, HEK293 microarray, Jurkat) (receptor)
chain: LSVQQGPNLLQVRQGSQATLVCQVDQATAWERLRVKWTKDGAILCQPYITNGSLSLGVCGPQGRLSWQAPSHLTLQLDPVSLNHSGAYVCWAAVEIPELEEAEGNITRLFVDPDDPTQNRNRIASFPGFLFVLLGVGSMGVAAIVWGAWFWGRRSCQQRDSGNSPGNAFYSNVLYRPRGAPKKSEDCSGEGKDQRGQSIYSTSFPQPAPRQPHLASRPCPSPRPCPSPRPGHPVSMVRVSPRPSPTQQPRPKGFPKVGEE
notes: The cDNA used in 293T and 300.19 cells is not tied to an entry in words; also called CD28H; IGPR1
B2: anti-HHLA2 monoclonal antibody 2C4 (antibody, IgG1, V domains shown)
VH: EVHLQQSGPELEKPGVSVKISCKASGFSFTDYNMNWVKQSSGKSLEWIGNIDPYYGRINYNQKFKGKATLSVDKSSSTAYMHLKSLTSEDSAVYYCATGAYTSGYSWFAYWGQGTLVTVSA
VL: ENVLTQSPGIMAASLGEKVTMTCSASSSVSSSYLHWYQQRSGASPKPLIHRTSNLASGVPARFSGSGSGTSYSLTISSVEAEDDATYYCQQWSGYPFTFGSGTKLEIK
notes: also called 499.5.2C4.E6.6.8.1; MHC2562
B3: anti-HHLA2 monoclonal antibody 6F10 (antibody, IgG1, V domains shown)
VH: QVHLQQSAAELARPGASVKMSCKASGYTFTTYTMHWVKQRPGQGLEWIGHINPSSGYTDYNQKFKDKTTLTADKSSSTAYMQLNSLTSEDSAVYYCARHPWDSDYWGQGTTLTVSS
VL: DIQMTQSPASLSASVGETVTITCRASENIDSYLAWYQQKQGRSPQLLVYAATNLADGVPSRFSGSGSGTQFSLQINRLQSEDVARYYCQHYYITPFTFGSGTKLEIA
notes: also called 499.5.6F10.A4.10; MHC2557
B4: human TMIGD2-human IgG1 fusion protein (R&D Systems catalog #8316-TR-050) (Fc fusion, UniProt Q96BF3 23-150, looked up)
chain: LSVQQGPNLLQVRQGSQATLVCQVDQATAWERLRVKWTKDGAILCQPYITNGSLSLGVCGPQGRLSWQAPSHLTLQLDPVSLNHSGAYVCWAAVEIPELEEAEGNITRLFVDPDDPTQNRNRIASFPG
notes: Bought reagent; also called TMIGD2-hIgG; TMIGD2-human Fc fusion protein; not shown: human IgG1 Fc portion of the bought fusion protein
B5: human HHLA2-mIgG2a fusion protein (Fc fusion, not shown: a dimerising Fc or GST)
chain: IFPLAFFIYVPMNEQIVIGRLDEDIILPSSFERGSEVVIHWKYQDSYKVHSYYKGSDHLESQDPRYANRTSLFYNEIQNGNASLFFRRVSLLDEGIYTCYVGTAIQVITNKVVLKVGVFLTPVMKYEKRNTNSFLICSVLSVYPRPIITWKMDNTPISENNMEETGSLDSFSINSPLNITGSNSSYECTIENSLLKQTWTGRWTMKDGLHKMQSEHVSLSCQPVNDYFSPNQDFKVTWSRMKSGTFSVLAYYLSSSQNTIINESRFSWNKELINQSDFSMNLMDLNLSDSGEYLCNISSDEYTLLTIHTVHVEPSQETASHN
notes: also called hHHLA2-mIgG2a; HHLA2-Fc

Key:
[1] = biological target: B5; test: cell microarray, soluble HHLA2-mIg fusion protein on transfected HEK293 cells
[2] = biological target: T1, human HHLA2 expressed on transfected …; test: flow cytometry, mAb on HHLA2-transfected 300.19 mouse pre-B cells
[3] = biological target: T1, human HHLA2 expressed on transfected …; test: flow cytometry, mAb titrated on human HHLA2-transfected 300.19 pre-B cells
Experimental: (§1) Binding of different HHLA2 mAbs to human and cynomolgus monkey HHLA2 was also tested and EC50 binding analysis was conducted (FIGS. 13A and 13B). […] HHLA2 mAb binding to transfected 300.19 cells was detected with PE-labeled goat anti-mouse IgG (H+L). EC50 analysis was conducted using Graph Pad Prism.

[4] = biological target: T2, cynomolgus monkey HHLA2 expressed on transfected 300.19 pre-B cells (cynomolgus monkey); test: flow cytometry, mAb titrated on cynomolgus monkey HHLA2-transfected 300.19 pre-B cells
T2 construct: whole, on cells
Experimental: FIGS. 13A and 13B show HHLA2 mAb binding to human and cynomolgus monkey HHLA2. […] HHLA2 mAb binding to transfected 300.19 cells was detected with a PE-labeled goat anti-mouse IgG (H+L) by flow cytometry.
as §1

[5] = biological target: T1, human HHLA2 expressed on transfected …; test: flow cytometry, mAb titrated on HHLA2-transfected 300.19 pre-B cells, PE goat anti-mouse IgG
Experimental: (§2) HHLA2 mAb cell binding and receptor blockade experiments were then performed. […] HHLA2 mAb binding to transfected 300.19 cells was detected with PE-labeled goat anti-mouse IgG (H+L). For HHLA2 mAb blocking experiments different concentration of HHLA2 mAbs were pre-incubated with 4 ug/ml of HHLA2-mIgG2a at a 1:1 ratio for 30 minutes and added to either TMIGD2 or KIR3DL3 transfected 293T cells and incubated for 30 minutes at 4° C. HHLA2-mIgG2a binding to TMIGD2 or KIR3DL3 transfected 293T cells was detected with a PE labeled Fab2 goat anti-mIgG2a antibody. EC50 and IC50 analyses were conducted using Graph Pad Prism. It was shown that HHLA2 mAb clone 2C4 has desired properties of complete KIR3DL3 blockade and partial TMIGD2 blockade (Table 6).

[6] = biological target: T1, human HHLA2 expressed on transfected …; test: as above; remark: listed apart in the source
Experimental: as §1

[7] = biological target: B5; test: flow cytometry, mAb pre-incubated with 4 ug/ml HHLA2-mIgG2a; blockade of its binding to TMIGD2-transfected 293T cells
Experimental: as §2

[8] = biological target: B5; test: flow cytometry, mAb pre-incubated with 4 ug/ml HHLA2-mIgG2a; blockade of its binding to KIR3DL3-transfected 293T cells
Experimental: as §2

[9] = biological target: B5; test: flow cytometry, mAb pre-incubated with 4 ug/ml HHLA2-mIgG2a; blockade of its binding to TMIGD2-transfected 300.19 pre-B cells
Experimental: (§3) HHLA2 mAb binding to transfected 300.19 cells was detected with PE-labeled goat anti-mouse IgG (H+L). […] EC50 and IC50 analyses were conducted using Graph Pad Prism. It was shown that HHLA2 mAb clone 2C4 has desired properties of complete KIR3DL3 blockade and partial TMIGD2 blockade (Table 7).

[10] = biological target: B5; test: flow cytometry, mAb pre-incubated with 4 ug/ml HHLA2-mIgG2a; blockade of its binding to KIR3DL3-transfected 300.19 pre-B cells
Experimental: as §3

[11] = biological target: T1, human HHLA2 expressed on transfected …; test: flow cytometry, staining and sorting of HHLA2-transfected 300.19 cells
Experimental: In particular, binding affinity for each anti-HHLA2 antibody was assayed. The HHLA2 cDNA and a vector encoding puromycin resistance were co-transfected by electroporation (300 volts, 1600 microfarads) into mouse 300.19 cells and selected with media containing 5 μg/ml puromycin. Cells expressing HHLA2 were identified by staining with TMIGD2-human Fc fusion protein and goat anti-human Fc antibody conjugated to phycoerythrin and single cell sorted by flow cytometry. Expression of HHLA2 in individual clones was confirmed by flow cytometry as described above. HHLA2-transfected 300.19 cells were titrated with anti-HHLA2 mAbs (FIG. 1A).

[12] = biological target: T3, KIR2DL1 (human, UniProt P43626 22-348); test: cell microarray, HHLA2-mIgG2a on fixed transfected HEK293 cells, AF647 anti-mouse IgG detection
T3 construct: whole, on cells
Experimental: (§4) Human HHLA2-mIgG2a fusion protein was added to slides of fixed, transfected HEK293 cell slides at a 20 ug/ml concentration, and the protein was detected with an AF647 labeled anti-mouse IgG detection antibody. Two replicate slides were screened for each of the 13 slide sets. Fluorescent images were analyzed and quantitated (for transfection efficiency) using ImageQuant software (GE). A protein ‘hit’ was defined as duplicate spots showing a raised signal compared to background levels. This was achieved by visual inspection using the images gridded on the ImageQuant software.
(§5) Addition of the AF647 labeled anti-mouse IgG detection antibody alone in the absence of HHLA2-mIgG2a produced no signal. The selectivity of HHLA2 binding to KIR3DL3 was evaluated using a panel of 14 KIR receptors arrayed on slides.

[13] = biological target: T4, KIR2DL2 (human, UniProt P43627 22-348); test: as above
T4 construct: whole, on cells
Experimental: as §4, §5

[14] = biological target: T5, KIR2DL4 (human, UniProt Q99706 22-377); test: as above
T5 construct: whole, on cells
Experimental: as §4, §5

[15] = biological target: T6, KIR2DL5A (human, UniProt Q8N109 22-375); test: as above
T6 construct: whole, on cells
Experimental: as §4, §5

[16] = biological target: T7, KIR2DL5B (human, UniProt Q8NHK3 22-375); test: as above
T7 construct: whole, on cells
Experimental: as §4, §5

[17] = biological target: T8, KIR3DL1 (human, UniProt P43629 22-444); test: as above
T8 construct: whole, on cells
Experimental: as §4, §5

[18] = biological target: T9, KIR3DS1 (human, UniProt Q14943 22-382); test: as above
T9 construct: whole, on cells
Experimental: as §4, §5

[19] = biological target: T10, KIR3DL2 (human, UniProt P43630 22-455); test: as above
T10 construct: whole, on cells
Experimental: as §4, §5

[20] = biological target: T11, human KIR3DL3 expressed on transfected cells (HEK293 microarray, 293T, 300.19) (human, UniProt Q8N743 26-410); test: cell microarray, HHLA2-mIgG2a on fixed KIR-transfected HEK293 cells, AF647 anti-mouse IgG detection
T11 construct: also called CD158Z; KIR3DL7
Experimental: as §4, §5

T8 sequence (P43629 22-444): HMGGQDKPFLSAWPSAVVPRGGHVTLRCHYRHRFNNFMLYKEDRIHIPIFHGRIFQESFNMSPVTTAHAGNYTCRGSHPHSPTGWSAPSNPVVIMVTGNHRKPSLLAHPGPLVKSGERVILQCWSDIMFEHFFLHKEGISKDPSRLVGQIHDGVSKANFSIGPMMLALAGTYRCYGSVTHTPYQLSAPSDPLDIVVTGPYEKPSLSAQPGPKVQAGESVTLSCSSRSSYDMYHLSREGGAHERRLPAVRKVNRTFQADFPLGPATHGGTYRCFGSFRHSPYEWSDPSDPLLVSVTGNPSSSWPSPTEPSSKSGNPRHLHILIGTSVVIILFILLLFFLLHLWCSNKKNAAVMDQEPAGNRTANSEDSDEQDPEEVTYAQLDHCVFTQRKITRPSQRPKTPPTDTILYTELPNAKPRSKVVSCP
T5 sequence (Q99706 22-377): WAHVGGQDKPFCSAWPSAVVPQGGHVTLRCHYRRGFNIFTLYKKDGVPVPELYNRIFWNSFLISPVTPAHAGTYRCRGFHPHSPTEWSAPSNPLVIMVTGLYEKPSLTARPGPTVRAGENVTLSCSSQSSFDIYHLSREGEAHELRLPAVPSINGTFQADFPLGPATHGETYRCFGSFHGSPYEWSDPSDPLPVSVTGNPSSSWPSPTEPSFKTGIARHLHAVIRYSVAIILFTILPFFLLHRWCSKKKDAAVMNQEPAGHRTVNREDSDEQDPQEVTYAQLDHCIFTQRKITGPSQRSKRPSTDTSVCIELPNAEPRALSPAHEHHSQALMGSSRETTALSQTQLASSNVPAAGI
T10 sequence (P43630 22-455): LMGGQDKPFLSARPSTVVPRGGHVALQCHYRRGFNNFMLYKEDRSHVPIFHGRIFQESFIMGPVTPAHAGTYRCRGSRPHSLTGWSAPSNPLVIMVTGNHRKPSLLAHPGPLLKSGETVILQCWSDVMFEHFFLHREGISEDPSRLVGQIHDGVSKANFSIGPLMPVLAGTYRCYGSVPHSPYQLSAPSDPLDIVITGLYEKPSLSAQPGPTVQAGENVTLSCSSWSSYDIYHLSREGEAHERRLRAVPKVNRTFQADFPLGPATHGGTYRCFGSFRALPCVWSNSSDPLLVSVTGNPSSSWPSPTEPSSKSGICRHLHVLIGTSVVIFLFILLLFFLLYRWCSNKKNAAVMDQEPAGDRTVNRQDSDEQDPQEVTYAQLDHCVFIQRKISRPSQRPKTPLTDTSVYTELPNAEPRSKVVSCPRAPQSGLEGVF
T4 sequence (P43627 22-348): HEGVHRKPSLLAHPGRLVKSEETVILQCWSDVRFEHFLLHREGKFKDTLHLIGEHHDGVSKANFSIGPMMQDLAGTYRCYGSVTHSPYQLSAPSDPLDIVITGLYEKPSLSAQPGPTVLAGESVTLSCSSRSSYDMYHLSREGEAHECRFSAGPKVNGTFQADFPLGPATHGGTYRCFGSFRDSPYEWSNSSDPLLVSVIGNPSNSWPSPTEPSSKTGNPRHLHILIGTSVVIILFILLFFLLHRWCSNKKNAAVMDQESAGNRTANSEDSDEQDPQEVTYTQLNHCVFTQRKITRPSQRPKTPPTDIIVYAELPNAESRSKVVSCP
T6 sequence (Q8N109 22-375): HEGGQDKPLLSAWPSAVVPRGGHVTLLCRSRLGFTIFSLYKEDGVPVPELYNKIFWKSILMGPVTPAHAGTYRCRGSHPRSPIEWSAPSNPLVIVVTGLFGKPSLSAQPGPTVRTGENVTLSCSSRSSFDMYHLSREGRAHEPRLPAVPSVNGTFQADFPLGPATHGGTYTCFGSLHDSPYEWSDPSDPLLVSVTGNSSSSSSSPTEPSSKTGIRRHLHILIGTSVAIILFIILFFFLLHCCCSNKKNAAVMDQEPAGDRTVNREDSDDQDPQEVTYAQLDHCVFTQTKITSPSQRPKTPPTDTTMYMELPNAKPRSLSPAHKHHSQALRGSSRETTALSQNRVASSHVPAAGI
T3 sequence (P43626 22-348): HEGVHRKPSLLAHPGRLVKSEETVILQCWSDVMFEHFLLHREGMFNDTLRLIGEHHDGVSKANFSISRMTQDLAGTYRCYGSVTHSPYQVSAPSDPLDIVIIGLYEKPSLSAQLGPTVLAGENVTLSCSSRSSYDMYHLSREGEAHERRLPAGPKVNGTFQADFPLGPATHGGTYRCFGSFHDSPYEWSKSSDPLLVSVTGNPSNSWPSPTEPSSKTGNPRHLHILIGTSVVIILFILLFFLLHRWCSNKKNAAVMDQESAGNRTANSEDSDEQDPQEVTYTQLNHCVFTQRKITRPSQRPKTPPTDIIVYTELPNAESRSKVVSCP
T9 sequence (Q14943 22-382): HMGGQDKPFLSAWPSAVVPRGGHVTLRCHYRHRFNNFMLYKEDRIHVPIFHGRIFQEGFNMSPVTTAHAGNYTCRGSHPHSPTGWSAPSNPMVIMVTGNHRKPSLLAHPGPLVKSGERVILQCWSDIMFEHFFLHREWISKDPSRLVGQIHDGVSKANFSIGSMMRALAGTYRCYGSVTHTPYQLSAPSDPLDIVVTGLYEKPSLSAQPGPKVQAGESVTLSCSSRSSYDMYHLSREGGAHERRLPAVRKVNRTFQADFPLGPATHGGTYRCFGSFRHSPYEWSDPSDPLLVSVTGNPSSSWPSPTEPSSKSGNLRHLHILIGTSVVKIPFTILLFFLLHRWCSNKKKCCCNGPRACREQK
T7 sequence (Q8NHK3 22-375): as the sequence (Q8N109 22-375) above, with N152D, G174S counted along it
T11 sequence (Q8N743 26-410 H321N limits assumed): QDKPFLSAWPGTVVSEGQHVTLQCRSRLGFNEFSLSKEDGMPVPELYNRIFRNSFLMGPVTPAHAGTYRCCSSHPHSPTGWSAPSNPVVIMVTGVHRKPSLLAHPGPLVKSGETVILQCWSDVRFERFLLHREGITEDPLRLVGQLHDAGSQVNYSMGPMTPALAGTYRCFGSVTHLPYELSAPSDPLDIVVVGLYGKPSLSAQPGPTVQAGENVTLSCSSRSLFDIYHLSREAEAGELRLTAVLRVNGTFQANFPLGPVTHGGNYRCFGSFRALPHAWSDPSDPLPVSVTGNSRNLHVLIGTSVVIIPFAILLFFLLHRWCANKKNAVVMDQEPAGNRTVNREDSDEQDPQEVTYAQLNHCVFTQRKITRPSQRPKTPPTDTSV

| EC50 [2] [µg/mL] | EC50 [3] [µg/mL] | EC50 [4] [µg/mL] | EC50 [5] [µg/mL] | EC50 [6] [µg/mL] | IC50 [7] [µg/mL] | IC50 [8] [µg/mL] | IC50 [9] [µg/mL] | IC50 [10] [µg/mL] | other results | Binder |
| --- | --- | --- | --- | --- | --- | --- | --- | --- | --- | --- |
| – | – | – | – | – | – | – | – | – | binding result [1]: binds | B1 |
| 0.24 | 0.29 | 0.47 | 0.24 | 0.29 | 28.2 | 0.52 | 7.3 | 0.97 | – | B2 |
| 0.25 | 0.22 | 0.4 | 0.25 | 0.22 | 0.55 | 0.9 | 0.92 | 0.74 | – | B3 |
| – | – | – | – | – | – | – | – | – | binding result [11]: binds | B4 |
| – | – | – | – | – | – | – | – | – | binding result [12]: no binding (tested: 20 ug/ml); binding result [13]: no binding (tested: 20 ug/ml); binding result [14]: no binding (tested: 20 ug/ml); binding result [15]: no binding (tested: 20 ug/ml); binding result [16]: no binding (tested: 20 ug/ml); binding result [17]: no binding (tested: 20 ug/ml); binding result [18]: no binding (tested: 20 ug/ml); binding result [19]: no binding (tested: 20 ug/ml); binding result [20]: binds | B5 |
